From paper PMC2719906

Molecular target: WASP GBD (GTPase binding domain, residues 242-310) (UniProt P42768)
Experiment: NMR titration

WASP GBD (GTPase binding domain, residues 242-310), sequence (P42768 242-310): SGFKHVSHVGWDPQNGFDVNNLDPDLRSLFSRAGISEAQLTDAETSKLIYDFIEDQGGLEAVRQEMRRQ
EspFU R5 (five-repeat fragment), sequence (P0DJ88 80-314): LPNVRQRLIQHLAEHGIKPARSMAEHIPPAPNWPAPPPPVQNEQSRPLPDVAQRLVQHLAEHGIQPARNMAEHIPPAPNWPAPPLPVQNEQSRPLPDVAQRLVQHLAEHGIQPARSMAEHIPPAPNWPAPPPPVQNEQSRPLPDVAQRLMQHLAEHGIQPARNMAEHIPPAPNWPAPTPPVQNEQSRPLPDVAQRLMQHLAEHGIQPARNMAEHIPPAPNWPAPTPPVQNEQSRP

EspFU R5 (five-repeat fragment) (from UniProt P0DJ88 80-314) (domain or fragment)
stoichiometry N: 0.2 EspFU:GBD
